These results are taken from US20150368338A1 (Janssen / Centocor, published 2015).

Holding throughout (test): ProteOn SPR, cell supernatant;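 also: each binding measurement used just a single antigen concentration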
The target of one assay is T1, human IFN-ω (human, UniProt P05000 24-195).
T1 construct: Recombinant, HEK293; also called interferon omega

Another assay addresses T2, IFN-αC (human, UniProt P01566 24-189).
T2 construct: Recombinant, HEK293; also called IFN-α10

A further assay concerns the target T3, IFN-αF (human, UniProt P01568 24-189).
T3 construct: Recombinant, HEK293; also called IFN-α21
T3 chain: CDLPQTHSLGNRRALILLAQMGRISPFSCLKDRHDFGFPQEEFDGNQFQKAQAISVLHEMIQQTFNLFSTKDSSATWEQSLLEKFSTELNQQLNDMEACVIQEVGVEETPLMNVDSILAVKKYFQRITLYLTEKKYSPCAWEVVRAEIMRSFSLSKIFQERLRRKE

A further assay concerns the target T4, IFN-αJ1 (human, UniProt P01567 24-189).
T4 construct: Recombinant, HEK293; also called IFN-α7

The target in another assay is T5, IFN-α4a (human, UniProt P05014 24-189).
T5 construct: Recombinant, HEK293; also called IFN-αM1

The target in the next assay is T6, IFN-αG (human, UniProt P01569 24-189).
T6 construct: Recombinant, HEK293; also called IFN-α5

The target of the next assay is T7, IFN-αWA (human, UniProt P05015 24-189).
T7 construct: Recombinant, HEK293; also called IFN-α16

Excerpt for IFN-α4a: (§1) To increase the assay throughput, only one concentration of the individual antigen was used.
Excerpt for IFN-αC: as §1
Excerpt for IFN-αF: as §1
Excerpt for IFN-αG: as §1
Excerpt for IFN-αJ1: as §1
Excerpt for IFN-αWA: as §1
Excerpt for human IFN-ω: as §1

B1: IFWM3379 (antibody, IgG1, V domains shown)
VH: EVQLVQSGAEVKKPGESLKISCKGSGYSFTSYWIGWVRQMPGKGLEWMGIIDPSDSDTRYSPSFQGQVTISADKSISTAYLQWSSLKASDTAMYYCARHPGLAWAPDFDYWGQGTLVTVSS
VL: DIQMTQSPSSLSASVGDRVTITCRASQSIDGSLNWYQQKPGKAPKLLIYFASSLQSGVPSRFSGSGSGTDFTLTISSLQPEDFATYYCQQSYDFPLTFGQGTKVEIK
notes: mAb; IgG1/kappa said of the parent and of selected mAbs; also called IFWB3114
As to B1, the dissociation constant (Kd) in the assay with human IFN-ω stood at 0.015 nM; with IFN-αC, 0.013 nM; with IFN-αF, 0.013 nM; with IFN-αJ1 it was 0.033 nM; with IFN-α4a, 0.072 nM; in the assay with IFN-αG, 0.013 nM. Besides, in the assay with IFN-αWA, the equilibrium dissociation constant (Kd) worked out at 0.023 nM.

B2: IFWM3293 (antibody, IgG1, V domains shown)
VH: EVQLVQSGAEVKKPGESLKISCKGSGYSFTSYWIGWVRQMPGKGLEWMGIIDPSDSDTRYSPSFQGQVTISADKSISTAYLQWSSLKASDTAMYYCARHPGLAWAPDFDYWGQGTLVTVSS
VL: DIQMTQSPSSLSASVGDRVTITCRASQSIDEFLNWYQQKPGKAPKLLIYFASSLQSGVPSRFSGSGSGTDFTLTISSLQPEDFATYYCQQAHSFPLTFGQGTKVEIK
notes: mAb; IgG1/kappa said of the parent and of selected mAbs; also called IFWB3028
In the case of B2, the Kd was found to be 0.029 nM with human IFN-ω; 0.025 nM in the assay with IFN-αC; 0.017 nM with IFN-αF; 0.062 nM in the assay with IFN-αJ1; 0.166 nM with IFN-α4a; 0.037 nM with IFN-αG. Besides, in the assay with IFN-αWA, the Kd is 0.046 nM.

B3: IFWM3390 (antibody, IgG1, V domains shown)
VH: EVQLVQSGAEVKKPGESLKISCKGSGYSFTSYWIGWVRQMPGKGLEWMGIIDPSDSDTRYSPSFQGQVTISADKSISTAYLQWSSLKASDTAMYYCARHPGLAWAPDFDYWGQGTLVTVSS
VL: DIQMTQSPSSLSASVGDRVTITCRASQSIDGALNWYQQKPGKAPKLLIYFASSLQSGVPSRFSGSGSGTDFTLTISSLQPEDFATYYCQQSFDFPLTFGQGTKVEIK
notes: mAb; IgG1/kappa said of the parent and of selected mAbs; also called IFWB3125
Take B3: the equilibrium dissociation constant (Kd) amounted to 0.01 nM in the assay with human IFN-ω; 0.011 nM with IFN-αC; 0.011 nM with IFN-αF; 0.03 nM with IFN-αJ1; 0.075 nM with IFN-α4a; 0.01 nM with IFN-αG. Moreover, the Kd with IFN-αWA was 0.029 nM.

B4: IFWM3401 (antibody, IgG1, V domains shown)
VH: EVQLVQSGAEVKKPGESLKISCKGSGYSFTSYWIGWVRQMPGKGLEWMGIIDPSDSDTRYSPSFQGQVTISADKSISTAYLQWSSLKASDTAMYYCARHPGLAWAPDFDYWGQGTLVTVSS
VL: DIQMTQSPSSLSASVGDRVTITCRASQSITNHLNWYQQKPGKAPKLLIYFASSLQSGVPSRFSGSGSGTDFTLTISSLQPEDFATYYCQQAHNFPLTFGQGTKVEIK
notes: mAb; IgG1/kappa said of the parent and of selected mAbs; also called IFWB3136
Take B4: the equilibrium dissociation constant (Kd) with human IFN-ω is 0.062 nM; in the assay with IFN-αF, 0.028 nM; with IFN-αJ1 it was 0.078 nM; with IFN-α4a, 0.195 nM; with IFN-αG, 0.067 nM; with IFN-αWA, 0.076 nM.

B5: IFWM3381 (antibody, IgG1, V domains shown)
VH: EVQLVQSGAEVKKPGESLKISCKGSGYSFTSYWIGWVRQMPGKGLEWMGIIDPSDSDTRYSPSFQGQVTISADKSISTAYLQWSSLKASDTAMYYCARHPGLAWAPDFDYWGQGTLVTVSS
VL: DIQMTQSPSSLSASVGDRVTITCRASQSIGSFLNWYQQKPGKAPKLLIYFASSLQSGVPSRFSGSGSGTDFTLTISSLQPEDFATYYCQQSYSIPITFGQGTKVEIK
notes: mAb; IgG1/kappa said of the parent and of selected mAbs; also called IFWB3116
Turning to B5, the Kd turned out to be 0.045 nM with human IFN-ω; 0.079 nM in the assay with IFN-αC; 0.092 nM with IFN-αF; 0.121 nM with IFN-αJ1; 0.171 nM in the assay with IFN-α4a; 0.053 nM in the assay with IFN-αG. The same molecule yielded a Kd with IFN-αWA of 0.067 nM.

B6: IFWM3380 (antibody, IgG1, V domains shown)
VH: EVQLVQSGAEVKKPGESLKISCKGSGYSFTSYWIGWVRQMPGKGLEWMGIIDPSDSDTRYSPSFQGQVTISADKSISTAYLQWSSLKASDTAMYYCARHPGLAWAPDFDYWGQGTLVTVSS
VL: DIQMTQSPSSLSASVGDRVTITCRASQSINRFLNWYQQKPGKAPKLLIYAASSLQSGVPSRFSGSGSGTDFTLTISSLQPEDFATYYCQQAIDLPFTFGQGTKVEIK
notes: mAb; IgG1/kappa said of the parent and of selected mAbs; also called IFWB3115
For the molecule B6, the Kd with human IFN-ω was 0.025 nM; with IFN-αC, 0.046 nM; in the assay with IFN-αF it was 0.032 nM; in the assay with IFN-αJ1 it was 0.076 nM; with IFN-α4a, 0.088 nM; with IFN-αG it was 0.07 nM. In the assay with IFN-αWA, this molecule gave a dissociation constant (Kd) of 0.059 nM.

B7: IFWM3382 (antibody, IgG1, V domains shown)
VH: EVQLVQSGAEVKKPGESLKISCKGSGYSFTSYWIGWVRQMPGKGLEWMGIIDPSDSDTRYSPSFQGQVTISADKSISTAYLQWSSLKASDTAMYYCARHPGLAWAPDFDYWGQGTLVTVSS
VL: DIQMTQSPSSLSASVGDRVTITCRASQSIGSALNWYQQKPGKAPKLLIYFASSLQSGVPSRFSGSGSGTDFTLTISSLQPEDFATYYCQQSYDFPLTFGQGTKVEIK
notes: mAb; IgG1/kappa said of the parent and of selected mAbs; also called IFWB3117
For the molecule B7, the dissociation constant Kd with human IFN-ω was 0.03 nM; with IFN-αC, 0.024 nM; with IFN-αF, 0.02 nM; with IFN-αJ1 it was 0.037 nM; in the assay with IFN-α4a, 0.075 nM; with IFN-αG, 0.03 nM. The molecule further displayed a dissociation constant (Kd) with IFN-αWA of 0.032 nM.

B8: IFWM3386 (antibody, IgG1, V domains shown)
VH: EVQLVQSGAEVKKPGESLKISCKGSGYSFTSYWIGWVRQMPGKGLEWMGIIDPSDSDTRYSPSFQGQVTISADKSISTAYLQWSSLKASDTAMYYCARHPGLAWAPDFDYWGQGTLVTVSS
VL: DIQMTQSPSSLSASVGDRVTITCRASQSIAEFLNWYQQKPGKAPKLLIYFASSLQSGVPSRFSGSGSGTDFTLTISSLQPEDFATYYCQQSIDFPLTFGQGTKVEIK
notes: mAb; IgG1/kappa said of the parent and of selected mAbs; also called IFWB3121
Turning to B8, the dissociation constant Kd came out at 0.026 nM in the assay with human IFN-ω; 0.031 nM with IFN-αC; 0.029 nM with IFN-αF; 0.087 nM with IFN-αJ1; 0.103 nM with IFN-α4a; 0.026 nM with IFN-αG. In addition, in the assay with IFN-αWA, binding was put at a Kd of 0.035 nM.

B9: IFWM3388 (antibody, IgG1, V domains shown)
VH: EVQLVQSGAEVKKPGESLKISCKGSGYSFTSYWIGWVRQMPGKGLEWMGIIDPSDSDTRYSPSFQGQVTISADKSISTAYLQWSSLKASDTAMYYCARHPGLAWAPDFDYWGQGTLVTVSS
VL: DIQMTQSPSSLSASVGDRVTITCRASQSIGKSLNWYQQKPGKAPKLLIYFASSLQSGVPSRFSGSGSGTDFTLTISSLQPEDFATYYCQQSYDFPLTFGQGTKVEIK
notes: mAb; IgG1/kappa said of the parent and of selected mAbs; also called IFWB3123
With B9, the dissociation constant Kd with human IFN-ω came to 0.033 nM; with IFN-αC, 0.03 nM; with IFN-αF it was 0.019 nM; with IFN-αJ1, 0.055 nM; with IFN-α4a, 0.084 nM; with IFN-αG, 0.027 nM. Also, binding with IFN-αWA was put at a Kd of 0.044 nM.

B10: IFWM3383 (antibody, IgG1, V domains shown)
VH: EVQLVQSGAEVKKPGESLKISCKGSGYSFTSYWIGWVRQMPGKGLEWMGIIDPSDSDTRYSPSFQGQVTISADKSISTAYLQWSSLKASDTAMYYCARHPGLAWAPDFDYWGQGTLVTVSS
VL: DIQMTQSPSSLSASVGDRVTITCRASQSISKFLNWYQQKPGKAPKLLIYFASSLQSGVPSRFSGSGSGTDFTLTISSLQPEDFATYYCQQSNTLPFTFGQGTKVEIK
notes: mAb; IgG1/kappa said of the parent and of selected mAbs; also called IFWB3118
As to B10, the dissociation constant Kd amounted to 0.028 nM with human IFN-ω; 0.069 nM with IFN-αC; 0.06 nM with IFN-αF; 0.086 nM with IFN-αJ1; 0.143 nM with IFN-α4a; 0.084 nM in the assay with IFN-αG. The Kd in the assay with IFN-αWA came out at 0.064 nM.

B11: IFWM3389 (antibody, IgG1, V domains shown)
VH: EVQLVQSGAEVKKPGESLKISCKGSGYSFTSYWIGWVRQMPGKGLEWMGIIDPSDSDTRYSPSFQGQVTISADKSISTAYLQWSSLKASDTAMYYCARHPGLAWAPDFDYWGQGTLVTVSS
VL: DIQMTQSPSSLSASVGDRVTITCRASQSIDDFLNWYQQKPGKAPKLLIYFASSLQSGVPSRFSGSGSGTDFTLTISSLQPEDFATYYCQQSHTLPLTFGQGTKVEIK
notes: mAb; IgG1/kappa said of the parent and of selected mAbs; also called IFWB3124
As to B11, the dissociation constant Kd with human IFN-ω was 0.017 nM; in the assay with IFN-αC, 0.024 nM; with IFN-αF, 0.009 nM; with IFN-αJ1 it was 0.032 nM; in the assay with IFN-α4a it was 0.098 nM; with IFN-αG, 0.033 nM. The molecule further showed a Kd in the assay with IFN-αWA of 0.03 nM.

B12: IFWM3387 (antibody, IgG1, V domains shown)
VH: EVQLVQSGAEVKKPGESLKISCKGSGYSFTSYWIGWVRQMPGKGLEWMGIIDPSDSDTRYSPSFQGQVTISADKSISTAYLQWSSLKASDTAMYYCARHPGLAWAPDFDYWGQGTLVTVSS
VL: DIQMTQSPSSLSASVGDRVTITCRASQSIGGFLNWYQQKPGKAPKLLIYFASSLQSGVPSRFSGSGSGTDFTLTISSLQPEDFATYYCQQSYSLPITFGQGTKVEIK
notes: mAb; IgG1/kappa said of the parent and of selected mAbs; also called IFWB3122
On to B12, for which the dissociation constant (Kd) with human IFN-ω amounted to 0.039 nM; with IFN-αC it was 0.09 nM; in the assay with IFN-αF it was 0.058 nM; in the assay with IFN-αJ1, 0.161 nM; with IFN-α4a, 0.169 nM; in the assay with IFN-αG it was 0.034 nM. This molecule also yielded a Kd in the assay with IFN-αWA of 0.069 nM.

B13: IFWM3384 (antibody, IgG1, V domains shown)
VH: EVQLVQSGAEVKKPGESLKISCKGSGYSFTSYWIGWVRQMPGKGLEWMGIIDPSDSDTRYSPSFQGQVTISADKSISTAYLQWSSLKASDTAMYYCARHPGLAWAPDFDYWGQGTLVTVSS
VL: DIQMTQSPSSLSASVGDRVTITCRASQSITNFLNWYQQKPGKAPKLLIYFASSLQSGVPSRFSGSGSGTDFTLTISSLQPEDFATYYCQQSLDFPLTFGQGTKVEIK
notes: mAb; IgG1/kappa said of the parent and of selected mAbs; also called IFWB3119
With B13, the Kd with human IFN-ω worked out at 0.026 nM; with IFN-αC it was 0.029 nM; with IFN-αF, 0.033 nM; with IFN-αJ1, 0.068 nM; with IFN-α4a, 0.077 nM; with IFN-αG it was 0.022 nM. The molecule also registered a Kd with IFN-αWA of 0.017 nM.
